Earlier results as cited in patent US6660905B1, “Mice comprising engrafted functional human hepatocytes” (The Board of Trustees of the Leland Stanford Junior …, priority 1999, dated 2003).

Substance: HGF: human hepatocyte growth factor
- half-life: on the order of minutes
